Laboratory results published in US7087711 (Harvard, dated 2006).

Target: T1, TATA-binding protein (TBP) (yeast, UniProt P13393 1-240, limits assumed)
T1 construct: Soluble analyte, injected over Gal4 derivatives captured on DNA in SPR
T1 sequence (looked up): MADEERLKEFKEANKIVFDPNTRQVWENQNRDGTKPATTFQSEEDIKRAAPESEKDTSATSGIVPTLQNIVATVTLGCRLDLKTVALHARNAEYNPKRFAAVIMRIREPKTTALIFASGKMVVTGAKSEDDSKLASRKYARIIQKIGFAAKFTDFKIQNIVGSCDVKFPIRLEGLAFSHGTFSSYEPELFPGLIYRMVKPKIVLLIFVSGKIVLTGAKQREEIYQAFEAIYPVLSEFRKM
Assay: SPR, Gal4 derivative captured on a DNA-bearing chip, TBP injected
Experimental: PROTEIN—PROTEIN INTERACTIONS: The activators (GAL4 derivatives and other activating regions fused to GAL4 DNA binding domain) were first passed over the DNA-bearing chip. Typically 10 µl of 0.01 mg/ml protein solution (~1 µM) in HBS (10 mM HEPES pH 7.4, 150 mM NaCl, 0.0005% Surfectant P20, Pharmacia) were injected at a flow rate of 5 µl/min, and the DNA was saturated by the activators. This is indicated by the first increase of the RU value on the sensorgrams. Various proteins to be tested (e.g., TBP) were then injected (typically 20 µl of […] solution in HBS at a flow rate of 5 µl/min), and their binding to the activating regions was indicated by the second increase of the RU value on the sensogram. The DNA bearing chip was then regenerated by washing with 10 µl of 0.1% SDS, a procedure that washes both proteins off the DNA, but leaves the DNA bearing chip intact. The baseline of the sensorgrams always comes back to the original level after each regeneration. A different activator was then injected to the same surface at the same concentration, and the DNA was once again saturated with the activators. As a consequence the same number of the molecules of the activators was immobilized to the chip each time. The protein to be tested (e.g., TBP) was once again injected and its binding to this activator was compared to that of the previous one. […]

B1: GAL4(1-100)+(840-857) (other, yeast, UniProt P04386 1-100, looked up)
chain: MKLLSSIEQACDICRLKKLKCSKEKPKCAKCLKNNWECRYSPKTKRSPLTRAHLTEVESRLERLEQLFLLIFPREDLDMILKMDSLQDIKALLTGLFVQDWTDQTAYNAFGITTGMFN
notes: range 1-100;range 840-857
For B1, the Ka was 2e+06 M⁻¹.

B2: GAL4(1-100)+(840-881) fusion (other, yeast, UniProt P04386 1-100, looked up)
chain: MKLLSSIEQACDICRLKKLKCSKEKPKCAKCLKNNWECRYSPKTKRSPLTRAHLTEVESRLERLEQLFLLIFPREDLDMILKMDSLQDIKALLTGLFVQDWTDQTAYNAFGITTGMFNTTTMDDVYNYLFDDEDTPPNPKKE
notes: range 1-100;range 840-881; also called G4RII' (as Gal4(840-881)) fused to Gal4(1-100); RJR182
Work on B2 yielded a Ka of 6e+06 M⁻¹.
